Results on 28 molecules are retold here after patent publication US20080020978A1 (Amgen, published 2008).

The target in assay [1] is T1, CGRP1 receptor (CRLR/RAMP1 complex) of human neuroblastoma SK-N-MC cells (human, UniProt Q16602 23-461; O60894 27-148). Nature of the assay: cell-based or functional assay.
Assay [2] addresses T1, CGRP1 receptor (CRLR/RAMP1 complex) of …. Put plainly: cell-based or functional assay. The source holds these as a separate data set.
Assay [3] shares this target. Put plainly: cell-based or functional assay. This is another data set of the same source.
Assay [4] shares this target. Nature of the assay: cell-based or functional assay. The source holds these as a separate data set.
The target is the same in assay [5]. Nature of the assay: 125I-hαCGRP competition, SK-N-MC membranes. On the procedure: CGRP₁ binding experiments. […] The plates were incubated at room temperature for 2 hour with shaking at 60 rpm, then the contents of each well were filtered over 0.5% polyethyleneimine (PEI)-treated (at least one hour) GF/C 96-well filter plates. The GF/C filter plates were washed 6 times with ice-cold 50 mM Tris, pH 7.5 and dried in an oven at 55 C for 1 hour. The bottoms of the GF/C plates were then sealed, and 40 μl Microscint™ 20 was added to each well, then the tops of the GF/C plates were sealed with TopSeal™-A, a press-on adhesive sealing film, and the GF/C plates were counted with TopCount NXT (Packard). The data were analyzed by using ActivityBase (IDBS) or Prizm (GraphPad) software.

Assay [6] has as its target rat ortholog of the CGRP1 receptor (rat, UniProt Q63118 24-464; Q9JJ74 27-148, limits assumed). Nature of the assay: cell-based or functional assay.
The target of assay [7] is T1, CGRP1 receptor (CRLR/RAMP1 complex) of …. Nature of the assay: cell-based or functional assay. The source holds these as a separate data set.

A word on the IC50: it is the concentration needed to halve the response being measured. Higher therefore signals weaker potency. As usually defined, the Ki is a dissociation constant, usually derived from enzyme kinetics or from competition with a known ligand. Read a high Ki as weaker binding.

Like-named read-outs stand apart in the source and are kept apart here. Square brackets hold non-standard residues; d marks the D form. Ends that are not written are not given here.

T1 sequence (Q16602 23-461, chain 1 of 2): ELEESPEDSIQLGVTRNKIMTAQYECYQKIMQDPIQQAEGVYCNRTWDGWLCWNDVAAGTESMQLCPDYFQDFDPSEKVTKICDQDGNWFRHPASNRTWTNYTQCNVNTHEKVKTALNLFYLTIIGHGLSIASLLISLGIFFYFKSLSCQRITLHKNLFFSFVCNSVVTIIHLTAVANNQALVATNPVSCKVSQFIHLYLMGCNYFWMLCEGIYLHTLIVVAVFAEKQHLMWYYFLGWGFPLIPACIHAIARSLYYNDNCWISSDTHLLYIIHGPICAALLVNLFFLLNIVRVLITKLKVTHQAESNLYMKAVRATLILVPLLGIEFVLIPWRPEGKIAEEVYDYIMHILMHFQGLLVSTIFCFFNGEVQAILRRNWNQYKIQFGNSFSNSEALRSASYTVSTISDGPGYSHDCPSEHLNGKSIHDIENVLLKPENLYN
T1 sequence (O60894 27-148, chain 2 of 2): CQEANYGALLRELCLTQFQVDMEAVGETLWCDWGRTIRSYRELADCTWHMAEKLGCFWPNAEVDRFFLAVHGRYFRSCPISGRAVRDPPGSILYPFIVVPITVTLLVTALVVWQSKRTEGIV
Chain of rat ortholog of the CGRP1 receptor (Q63118 24-464 limits assumed, chain 1 of 2): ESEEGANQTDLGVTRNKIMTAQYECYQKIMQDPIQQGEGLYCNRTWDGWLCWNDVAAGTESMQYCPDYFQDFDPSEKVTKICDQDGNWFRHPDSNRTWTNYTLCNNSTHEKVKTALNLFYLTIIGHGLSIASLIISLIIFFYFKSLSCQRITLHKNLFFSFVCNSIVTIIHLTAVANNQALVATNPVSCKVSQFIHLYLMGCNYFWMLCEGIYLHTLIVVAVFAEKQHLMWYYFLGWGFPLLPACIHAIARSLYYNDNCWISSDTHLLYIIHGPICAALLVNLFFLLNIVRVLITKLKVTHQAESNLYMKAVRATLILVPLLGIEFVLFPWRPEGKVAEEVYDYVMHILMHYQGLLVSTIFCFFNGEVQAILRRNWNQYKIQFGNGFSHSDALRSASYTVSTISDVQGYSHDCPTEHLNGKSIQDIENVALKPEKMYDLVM
Chain of rat ortholog of the CGRP1 receptor (Q9JJ74 27-148 limits assumed, chain 2 of 2): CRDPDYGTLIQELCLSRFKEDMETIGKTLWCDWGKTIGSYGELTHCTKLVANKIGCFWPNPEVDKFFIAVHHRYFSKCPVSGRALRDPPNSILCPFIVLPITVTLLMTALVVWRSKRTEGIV

B1: SEQ ID NO 17 (peptide)
peptide: Ac-WVTHRLAGLLSRSGGVVRCNFVPTDVGPFAF-NH2
modifications: not fully specified (residue 19); printed as Ac-WVTHRLAGLLSRSGGVVRCNFVPTDVGPFAF-NH2
In the case of B1, in assay [1], the “IC50” value came out at 1900 pM.

Consider Ac-WVTHRLAGLLSRSGGVKRNNFVPTDVGPFAF-NH2 [SEQ ID NO 11], for which the “IC50” value in assay [2] and in assay [1] was 510 pM each time.

B2: SEQ ID NO 12 (peptide)
peptide: Ac-WVTHRLAGLLSRSGGVVKNNFVPTDVGPFAF-NH2
modifications: not fully specified (residue 18); printed as Ac-WVTHRLAGLLSRSGGVVKNNFVPTDVGPFAF-NH2
As to B2, the “fold loss of antagonist activity against SEQ ID NO:5” value in assay [3] is > 15 fold. The “IC50” value in assay [1] turned out to be 3050 pM.

B3: SEQ ID NO 16 (peptide)
peptide: Ac-WVTHRLAGLLSRSGGVVRKNFVPTDVGPFAF-NH2
modifications: not fully specified (residue 19); printed as Ac-WVTHRLAGLLSRSGGVVRKNFVPTDVGPFAF-NH2
On to B3, for which, in assay [3], the “fold change in potency against SEQ ID NO:1” value is ~12 fold and the “fold loss of antagonist activity against SEQ ID NO:7” value was ~3 fold. Further, the “IC50” value in assay [1] worked out at 390 pM.

B4: SEQ ID NO 36 (peptide)
peptide: Ac-WVTHRLAGLLSQSGGVVRCNFVPTDVGPFAF-NH2
modifications: not fully specified (residue 19); printed as Ac-WVTHRLAGLLSQSGGVVRCNFVPTDVGPFAF-NH2
Take B4: the “fold loss of antagonist activity against SEQ ID NO:35” value in assay [3] is > 12 fold. Also, 4690 pM corresponded to half-maximal inhibition in assay [4] (IC50).

B5: SEQ ID NO 19 (peptide)
peptide: Ac-WVTHRLAGLLSRSGGVKRNNFVPTDVGPFAF-NH2
modifications: not fully specified (residue 17); printed as Ac-WVTHRLAGLLSRSGGVKRNNFVPTDVGPFAF-NH2
In the case of B5, the “IC50” value in assay [1] worked out at 980 pM.

As to WFVPTDVGPFAF-NH2 [SEQ ID NO 96], the midpoint of inhibition in assay [2], the IC50, lay at 21700 pM.

Turning to Ac-VTHRLAGLLSRSGGVVRKNFVPTDVGPFAF-NH2 [SEQ ID NO 6], half-maximal inhibition in assay [2] (IC50) was put at 700 pM. Besides, the Ki in assay [5] was determined as 40 pM.

B6: SEQ ID NO 14 (peptide)
peptide: Ac-WVTHRLAGLLSRSGGVVCNNFVPTDVGPFAF-NH2
modifications: not fully specified (residue 18); printed as Ac-WVTHRLAGLLSRSGGVVCNNFVPTDVGPFAF-NH2
Take B6: half-maximal inhibition in assay [1] (IC50) required 2200 pM.

B7: SEQ ID NO 38 (peptide)
peptide: Ac-WVTHRLAGLLSQSGGVVRKNFVPTDVGPFAF-NH2
modifications: not fully specified (residue 19); printed as Ac-WVTHRLAGLLSQSGGVVRKNFVPTDVGPFAF-NH2
For the molecule B7, in assay [3], the “fold change in potency against SEQ ID NO:36” value was > 42 fold. Half-maximal inhibition in assay [4] (IC50) required 110 pM.

On to Ac-WVTHRLAGLLSRSGGVVRKNFVPTDVGPFAF-NH2 [SEQ ID NO 808], for which, in assay [6], the “in vitro IC50 (rat ortholog; nM)” value was found to be 5.4 nM.

As to Ac-WVTHRLAGLLSRSGGVVRK(20 kDa MeO‑PEG)NFVPTDVGPFAF-NH2 [SEQ ID NO 809], it took 320 pM to reach half-maximal inhibition in assay [7] (IC50). For the same molecule, the “in vitro IC50 (rat ortholog; nM)” value in assay [6] was determined as 6.4 nM.

B8: SEQ ID NO 20 (peptide)
peptide: CGGGGGGGVTHRLAGLLSRSGGVVKNNFVPTDVGPFAF-NH2
modifications: not fully specified (residue 1); printed as CGGGGGGGVTHRLAGLLSRSGGVVKNNFVPTDVGPFAF-NH2
On to B8, for which the “fold loss of potency against SEQ ID NO:3” value in assay [3] is > 190 fold. Besides, in assay [1], the half-inhibitory concentration (IC50) was determined as 138000 pM.

As for CGGGGGGGPTDVGPFAF-NH2 [SEQ ID NO 45], the “IC50” value in assay [2] is 56600 pM.

Take CGGGGGGGVTHRLAGLLSRSGGVVKNNFVPTDVGPFAF-NH2 [SEQ ID NO 3]: the “fold change in potency against SEQ ID NO:1” value in assay [3] is > 6 fold. Further, the “IC50” value in assay [2] and in assay [1] was 720 pM in each case.

In the case of WVTHXLAGLLSXSGGVVRKNFVPTDVGPFAF (Ac-WVTH(hR)LAGLLS(hR)SGGVVRKNFVPTDVGPFAF-NH2) [SEQ ID NO 25], the “fold loss of antagonist activity against SEQ ID NO:21 and 23” value in assay [3] was ~5 fold. For the same molecule, the “IC50” value in assay [4] stood at 2100 pM.

WVTHXLAGLLSXSGGVVRKNFVPTDVGPFAF (Ac-WVTH(Cit)LAGLLS(Cit)SGGVVRKNFVPTDVGPFAF-NH2) [SEQ ID NO 31]: the “fold loss of potency against SEQ ID NO:27 and 29” value in assay [3] was ~3 fold. For the same molecule, the “IC50” value in assay [4] stood at 1800 pM. Also, the Ki in assay [5] is 460 pM.

B9: SEQ ID NO 15 (peptide)
peptide: Ac-WVTHRLAGLLSRSGGVVRKNFVPTDVGPFAF-NH2
modifications: not fully specified (residue 19); printed as Ac-WVTHRLAGLLSRSGGVVRKNFVPTDVGPFAF-NH2
For B9, in assay [3], the “fold change in potency against SEQ ID NO:1” value is ~12 fold and the “fold loss of antagonist activity against SEQ ID NO:7” value is ~3 fold. The “IC50” value in assay [1] is 420 pM.

B10: SEQ ID NO 13 (peptide)
peptide: Ac-WVTHRLAGLLSRSGGVVKNNFVPTDVGPFAF-NH2
modifications: not fully specified (residue 18); printed as Ac-WVTHRLAGLLSRSGGVVKNNFVPTDVGPFAF-NH2
On to B10, for which the “fold loss of antagonist activity against SEQ ID NO:5” value in assay [3] was > 15 fold. For the same molecule, the midpoint of inhibition in assay [1], the IC50, lay at 2150 pM.

B11: SEQ ID NO 42 (peptide)
peptide: Ac-WVTHRLAGLLS[dR]SGGVVRCNFVPTDVGPFAF-NH2
modifications: not fully specified (residue 19); printed as Ac-WVTHRLAGLLSrSGGVVRCNFVPTDVGPFAF-NH2
With B11, the “fold loss of antagonist activity against SEQ ID NO:41” value in assay [3] is > 32 fold. Also, 19400 pM corresponded to half-maximal inhibition in assay [4] (IC50).

For WVTHRLAGLLSRSGGVVKNNFVPTNVGSKAF-NH2 [SEQ ID NO 4], the “fold change in potency against SEQ ID NO:1” value in assay [3] is > 7 fold. 640 pM corresponded to half-maximal inhibition in assay [2] (IC50).

Consider Ac-WVTHRLAGLLSRSGGVVRCNFVPTDVGPFAF-NH2 [SEQ ID NO 8], for which the “fold change in potency against SEQ ID NO:9” value in assay [3] is > 4 fold. The concentration for half-maximal inhibition (IC50) in assay [2] and in assay [1] was 500 pM in each case.

B12: SEQ ID NO 41 (peptide)
peptide: Ac-WVTHRLAGLLS[dR]SGGVVRCNFVPTDVGPFAF-NH2
SMILES: CC(=O)N[C@@H](Cc1c[nH]c2ccccc12)C(=O)N[C@H](C(=O)N[C@H](C(=O)N[C@@H](Cc1c[nH]cn1)C(=O)N[C@@H](CCCNC(=N)N)C(=O)N[C@@H](CC(C)C)C(=O)N[C@@H](C)C(=O)NCC(=O)N[C@@H](CC(C)C)C(=O)N[C@@H](CC(C)C)C(=O)N[C@@H](CO)C(=O)N[C@H](CCCNC(=N)N)C(=O)N[C@@H](CO)C(=O)NCC(=O)NCC(=O)N[C@H](C(=O)N[C@H](C(=O)N[C@@H](CCCNC(=N)N)C(=O)N[C@@H](CS)C(=O)N[C@@H](CC(N)=O)C(=O)N[C@@H](Cc1ccccc1)C(=O)N[C@H](C(=O)N1CCC[C@H]1C(=O)N[C@H](C(=O)N[C@@H](CC(=O)O)C(=O)N[C@H](C(=O)NCC(=O)N1CCC[C@H]1C(=O)N[C@@H](Cc1ccccc1)C(=O)N[C@@H](C)C(=O)N[C@@H](Cc1ccccc1)C(N)=O)C(C)C)[C@@H](C)O)C(C)C)C(C)C)C(C)C)[C@@H](C)O)C(C)C
In the case of B12, the midpoint of inhibition in assay [4], the IC50, lay at 590 pM.

Regarding CGGGGGGGVTHRLAGLLSRSGGVVKNNFVPTNVGSKAF-NH2 [SEQ ID NO 2], it took 21100 pM to reach half-maximal inhibition in assay [2] (IC50).

With Ac-WVTHRLAGLLSRSGGVVRKNFVPTDVGPFAF-NH2 [SEQ ID NO 7], the “IC50” value in assay [2] and in assay [1] was 130 pM in each case.

Take Ac-WVTHRLAGLLSRSGGVCRNNFVPTDVGPFAF-NH2 [SEQ ID NO 10]: the “IC50” value in assay [2] and in assay [1] was 360 pM throughout.

B13: SEQ ID NO 18 (peptide)
peptide: Ac-WVTHRLAGLLSRSGGVCRNNFVPTDVGPFAF-NH2
modifications: not fully specified (residue 17); printed as Ac-WVTHRLAGLLSRSGGVCRNNFVPTDVGPFAF-NH2
For the molecule B13, the “fold change in potency against SEQ ID NO:1” value in assay [3] is ~31 fold. Also, half-maximal inhibition in assay [1] (IC50) was put at 160 pM.

Consider Ac-WVTHRLAGLLSRSGGVVCNNFVPTDVGPFAF-NH2 [SEQ ID NO 9], for which the “IC50” value in assay [2] and in assay [1] was 2150 pM in each case.
